This experiment has as its target T1, SARS-CoV-2 spike protein receptor binding domain (RBD) (SARS-CoV-2, wild type (Wuhan-Hu-1 …, UniProt P0DTC2)).
T1 construct: also called SARS-CoV-2 RBD
Briefly: SPR. As to conditions: both partners purified.

Numbering of substitutions follows the chain as printed. Names may count otherwise.

B1: romlusevimab (BRII-198) (antibody, V domains shown)
VH: QVQLVQSGSELKKPGASVKVSCKASGYTFTTYVMNWVRQAPGQGLEWMGWINTNTGNPTYAQGFTGRFVFSLDTSVSTASLQISSLKAEDTAVYYCSSEITTLGGMDVWGQGTTVTVSS
VL: SYVLTQPPSVSVAPGKTARITCGGNNIGSKSVHWYQQKPGQAPVLVIYYDSDRPSGIPERFSGSNSGNTATLTISGVEAGDEADYYCQVWDSISDHRVFGGGTKLTVL
Regarding B1, binding was characterised by a dissociation constant (Kd) of 0.56 nM.

B2: P2B-1G5 (precursor of romlusevimab) (antibody, V domains shown)
VH: B1 VH with S98C
VL: B1 VL
Regarding B2, the binding result is “binds”.

The values above are taken from publication PMC9518701, “Preclinical characterization of amubarvimab and romlusevimab, a pair of non-competing neutralizing monoclonal antibody cocktail, against SARS-CoV-2” (Frontiers in Immunology, 2022).
